The values below come from the nanobody polyreactivity screen of Harvey et al. (2022).

This data set in a line: yeast display, Sf9 membrane polyspecificity reagent, FACS + sequencing; frameworks hold sequencing errors. The procedure, abridged:
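In a synthetic yeast display library (Saccharomyces cerevisiae BJ5465), nanobody expression was induced with galactose for 36–48 hours. FACS gates were set low and high (top ~1%) using anti-HA fluorescence for expression and streptavidin fluorescence for binding of the Sf9 membrane reagent. Each polyreactivity label is drawn from the gate of origin.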
Turning to “QVQLVESGGGIVQAGGSLRLSCAASGRIFVPNAMGWYRQAPGKERELVAAITSDGRTNYADSVKGRFTISRDNAKHTVYLQMNSLKPEDTAVYYCNAPVVTFGGYQDDVEYGYWGQGTQVTVSS”, the “polyreactivity (PSR sort gate)” value is “low polyreactivity”. As for “QVQLVESGGGLVQAGGSLRLSCAASGSTLDEYAMGWYRQAPGKEREFVAAISWSDGSTYADSVKGRFTISRDNAKNTVYLQMNSLKPEDTAVYYCNAYAYVSLYYSGEYWGQGTQVTVSS”, the entry is “low polyreactivity”; as for “QVQLVESVGGIVQAGGSLRLSCAASGSTRYNAMGWYIQAPGKERELVAYIRGNAGSTYYADSVKGRFTISRDNAKNTVYLQMNSLKPEDTAVYYCNARYWYRYGGYKPVGGYYWGQGTQVTVSS”, “high polyreactivity”; as for “QVQHVESGGGLVQAGGGLRISCAASGSIFHVNAMGWSRLAPGKERELVAGISDGGSTYYADSVKGRFTFSRDTAKHTVYLQLNSLKPEDTAVYYSGAECEQWYSYVLSYDWEYDYWGQGTQVTVSS”, “low polyreactivity”. As for “QVQLVESGGGLVKAGGSLRLSCAASGRIFSRNAMGWYRQAPGKERELVAAITRRGGNTYYADSVKGRFTISRDNAKNTVYLQMNSLKPEDTAVYYCATRRYYQRWSPGYDYWGQGTQVTVSS”, the entry is “high polyreactivity”; as for “QVQLQESGGGLVQAGGSLRLSCAASGTISDRAGMGWYRQAPAKNAIVATIDRGTNTNYADSVKGRFTISRDNAKNPVYLKMNSLKPEDTAVYNWAADGRYYIYLDYWGQGTQVTVSS”, “low polyreactivity”. As for “QVQLVESGGGLVQAGGSLRLSCAASGFTFRRYAMGWYRQAPGKEREMVAVINVSDGSTYYADSVKGRFTISRDNAKNTVYLQMNSLKPEDTAVYYCAAYLYNRPYQLPGYYDGYGYWGQGTQVTVSS”, the entry is “low polyreactivity”; as for “QVQLVESGGGLVQAGGSLRLSCAASGRIFDKYTMGWYRQAPGTERELVAAISKSGSGTFYADSVKGRFTISRDNAKNTVYLQMNSLKPEDTAVYYCARVYTVGTGRSWRLDYWGQGTQVTVSS”, “high polyreactivity”. Turning to “QVQLVESGGGLVQAGGSLRLSCAASGSIFYWNVMGWYRQAPGKERELVAGISTSVGNTYYADSVKGRFTISRDNAKNTVYLQMNSLKPEDTAVYYCNVAGKQKPYYVTTRLDYWGQGTQVTVSS”, the “polyreactivity (PSR sort gate)” value is “high polyreactivity”. As for “QVQLVESGGGLVQAGGSLRLSCAASGSIFYWYAMGWYRQAPGKERELVAAITYSGDRTYYADSVKGRFTISRDNAKNTVYLQMNSLKPEDTAVYYCAKDRGSGPLDYWGQGTQVTVSS”, the entry is “low polyreactivity”; as for “QVQLVESGGGLVQAGGSLRLSCAASGRTFTTYTMGWYRQAPGKERELVASINYRGGRTYYADSVKGRFTISRDNAKNTVYLQMNSLKPEDTAVYYCAKRRYYRRRQYYHYDYWGQGTQVTVSS”, “high polyreactivity”. Turning to “QVQLVESGGGLVQAGGSLRLSCAASGSIFVNNAMGWYRQAHGKERELVAAISGSGSSTHYAHSVKGRFTISRDNAKNTVYLQMNSLKPEDTAVYYCNRGRRDLDFNYWGQGTQVTVSS”, the “polyreactivity (PSR sort gate)” value is reported as “low polyreactivity”. As for “QVQLVESGGGLVQAGGSLRLSCAASGFIFTRNVMGWYRQAPGKEMELVASISKSSGSTYYADSVKGRFTISRDNAKNTVYLQMNSLNPEDTAVYYCATYAKQLSPYYYWGQGIQVTVSS”, the entry is “high polyreactivity”; as for “QVQLVESGGGLVQAGGSLRLSCAASGNIFVWNDMGWYRQAPGKERELVAAISLSGSSTYYADSVKGRFTISRDNAKNTVYLQMNSLKPEDTAVYYCATTRRVPGEYWGQGTQVTVSS”, “high polyreactivity”; as for “QVQLVESGGGLVQAGRSLRLICAASGRILGGNTMGWYRQAPGKERELVAGISYSGGRTYYADSVQRRFTISRDNAKHTFYLQMNSLKPEDTAVYYCNVPLGRGRKIAYGYWGQGTQVTVSS”, “high polyreactivity”. As for “QVQLVESGGGLVQAGGSLRLSCAASGRIFYKNAMGWYRQAPGKERELVATITYSDGTTYYADSVKGRFTISRDNAKNTVYLQMNSLKPEDTAVYYCAAQTDSVESDYWGQGTQVTVSS”, the entry is “low polyreactivity”; as for “QVQLVESGGGLVQAGGSLRLSCAASGLIFRWYAMGWSRQAPGKEWELVAAINYSGGRTYYADSVKGRFTISRDNAKNTVYLQMNSLKPEDTAVYYCAADGTYVWGSEEGNYWGQGTQVTVSS”, “low polyreactivity”. On to “QVQLVESGGGLVQAGGSLRLSCAASGRTFFYNARGWYRQEPGKERELVAAIDWSGDSTYYADSVKGRFTISRDNAKNTVYLQMNSLKPEDTAVYYCAARRKNRRDYDYYYWGQGTQVTVSS”, for which the “polyreactivity (PSR sort gate)” value is listed as “high polyreactivity”.

On to “QVQLVESGGGLVQAGGSLRLSCAASGLIFRSYAMGWYRQEPGKERELVARISIRGGSTYYADSVKGRFTISRDNAKNTVYLQMNSLKPEDTAVYYCAADYASWSNWGYEYWGQGTQVTVSS”, for which the “polyreactivity (PSR sort gate)” value was “high polyreactivity”. As for “QVQHVESGGGILQAGRSLRLICAASGRLYLSNVMAWNRQAPGTERQLVAAITGRGSSTYYADSVKGRFTISRDNAKNTVYLLINSLKPEDSAVYSCAKRLPYSSGYEYWGQGTQVTVSS”, the entry is “high polyreactivity”; as for “QVQLVESGGGLVQAGGSLRLSCADSGFTFTYYTMGWYRQAPGKERELVAAISGSGGSTYYADSVKGRFTISRDNAKYTVYLQMNSQKPEDSAVYYCAARSRWQSYRLKNHGTYKHDYWGQGTQVTVSS”, “high polyreactivity”.

With “QVQLVESGGGLVQAGGSLRLSCAASGSTLRPYAMGWYRQAPGKERELVAAISKSGASTYYADSVKGRVTISRDNANNTVYFQMNSLKPEDTAVNYCNAGRGTWETLYGYDYWGQGTQVTVSS”, the “polyreactivity (PSR sort gate)” value is given as “high polyreactivity”. As for “QVQLVESGGGLVQAGGSLRLSCAASGLTFIGNAMGWYRQAPGKERELVAAITWSGTSTYYADSVKGRFTISRDNAKNTVYLQMNSLKPEDTAVYYCAAVLRRLGVSYYYWGQGTQVTVSS”, the entry is “high polyreactivity”; as for “QVQLVESGGGLVQAGGSLRLSCAASGSIFSRYAMGWYRQAPGKEMELVAAISSRGGSTSYADSVKGRFTISRDYAKNTVYLQMNSLQPEDTAVYYCGRVYYAGPRLYRDFGFDYWGQGTQVTVSS”, “high polyreactivity”. In the case of “QVQIVESGGGLVQAGGSLRLSCAASGFIFDNNAMGWSRQAPWKESELFATITSGGRTNYADSVKGRFTISRDNAKNTVYLRMNCLKPEDTAVYYCAAFYYLCSRRKTRDYWGQGTQVTVSS”, the “polyreactivity (PSR sort gate)” value is “low polyreactivity”. As for “QVQLVESGAGLVQAGGRLRLRCDASGFIFRYYAMGWYRQAPGKERELVAAISESGASTYYADSVKGRFTISRDNAKNTVYLQMNSLKPEDTAVYYCAAKPRKSGPYYFYDLNYWGQGTQVTVSS”, the entry is “high polyreactivity”; as for “QEQLQESRGGLVQAGGSLRMTCAASGYNYLAHTIGWYRQAPGKELEFVASIALGSSTYYTDSVKGSFTISRDNAKTTVYLQKNSQKPEDTAVYYCAARVGASYAHDYWGQGTQVTVSS”, “low polyreactivity”; as for “QVQLVESGGGLVQAGGSLRLSCAASGGTFGVYTMGWYRQAPGKERELVAAISWSGGSTYYADSVKGRFTISRDNAKNTVYLQMNSLKPEDTAVYYCAARLKYGRIRVDHWGQGTQVTVSS”, “high polyreactivity”. On to “QVQLVESGGGLVQAGRSLRLSCAASGSTFSSYGMGWYRQAPGKDRELDASITIRGGSTYYADSVKGRFTISRDNAKTTVCIQMNSLKPEDTAVYYCAADVTNRGTWVIYGYYYWGQGTQVTVSS”, for which the “polyreactivity (PSR sort gate)” value was “low polyreactivity”. As for “QVQLVESGGGLVQAGGSLRLSCAASGSIFVNYAMGWYRQAPGKERELVAAISWRGGITYADSVKGRFTISRDNAKNTVYLQLNSLKPEDTAVYYCARRGYGAGPSYRLGDYWGQGTQVTVSS”, the entry is “low polyreactivity”. As for “QVQLVESGGGLVQAGGSLRLSCAASGSTFFHYAMGWYRQAPGKERELVAAISTGGTTYYADSVKGRFTISRDNAKNTVYLQMNSLKPEDSAVYYCAAEAYGLSGLYYYWGQCTQVTVSS”, the entry is “high polyreactivity”. As for “QVQLVESGGGLVQAGGSLRLSCAASGRIFTAYAMGWYRQAPGKERELVASITTSGTTYYADSVKGRFTISRDNSKNTVYLQMNSLKPEDTAVYYCAADYYGYVQGGIQYGYYYLGQGTQVTVSS”, the entry is “low polyreactivity”; as for “QVQLVESGGGLVQAGGSLRLSCAASGSTFSYNAMGWYRQAPRKERELVAAISNTGSTYYADSVKGRFTISRDNAKNTVYLQMYSVKPEDSAVYYCAALWVHKRRQNSAHYDSWGQGTQVTVSS”, “low polyreactivity”; as for “QVQLVESGGGLVQAGGSLRLSCAASGFIFTQYAMGWYRQSPGKERELVAGITSSGNTYYADSVKGRFTISRDNAKNTVYLQMNSLKPEDTAVYYCAARSYVRRFDGGYWGQGTQVTVSS”, “high polyreactivity”. For the sequence “QVQLVESGGGLVQAGGSLRLSCAASGRILYRYAMGWYRQAPGKERELVADISWSGGSRYYADSVKGRFTISRDNAKNTVYLQMNSLKPEDTAVYYCAAFRLWYSTFDYWGQGTQVTVSS”, the “polyreactivity (PSR sort gate)” value is recorded as “high polyreactivity”. As for “QVQLVESGGGLVQAGGSLRLSCAASGSIFQYYAMGWYRQAPGKERELVAVISFSDGSTYYADSVKGRFTISRDNAKNTVYLQMNSLKPEDTAVYYCARRRFSVSRRSYYWGQGTQVTVSS”, the entry is “high polyreactivity”; as for “QVQLVESGGGLVQAGGSLRLSCAASGSIFYVYAMGWYRQAPGKERELVAAITNYADSVKGRFTISRDNAKNTVYLQMNSLKPEDTAVSYCAADWWRVEMDYWGQGTQVTVSS”, “low polyreactivity”; as for “QVHLVESGGGLVQAGGSLRLSCAASGSLSVRNVMGWYSQAPGKERELVATIRRSGGSTSYADSVKGRFTISRDNSKNSVYLQMNSLKPEDTAVYYCAAVVYTTYRRYDYWGQGTQVNVSS”, “low polyreactivity”. As for “QVQLVESGGGLVQAGGSLRLSCAASGSIFYFYAMGWYRQAPGKERELVAAISFSGTRTYYADSVKGRFTISRDNAKNTVYLQRNSLKPEDTAVYYCNAVAYNYPRTYDYWGPGTQVTVSS”, the entry is “high polyreactivity”; as for “QVQLVESGGGLVQAGGSLRLSCAASGFTVTWYAMAWYRQAPGKERELVASISRSGGSTYYADSVKGRFTISRDNAKNTVSLQMISLKPEDSAVYYCAAVSRTRSYDYWRQGTQVTVSS”, “high polyreactivity”.
